Data published in patent US20180282690A1, “METHOD AND CULTURE MEDIUM FOR EX VIVO CULTURING OF EPIDERMIS-DERIVED STEM CELLS” (Max-Planck-Gesellschaft zur Förderung der Wissenchaften e.V., priority 2015, published 2018).

Tested on: CD34^+α6^+ HFSCs
Assay: 3D-ECM culture of mouse keratinocytes, CD34+α6+ HFSCs quantified by flow cytometry
Assay type: cell-based
Settings: for percentage of CD34+α6+ HFSCs: vs untreated 3C; for normalized CD34+α6+ content of cultures: day 14 Matrigel; for growth/expansion of CD34+α6+ HFSCs when FGF-2 or VEGF-164 is replaced: in the 3C, YF and/or YV media, compared with FGF-2 / VEGF-164
Method: Keratinocytes were isolated from back skin of mice by incubating skin pieces in 0.8% Trypsin (Gibco) for 50 min at 37° C. After separating the epidermis from the underlying dermis, cells were homogenized, filtered through 70 μm and 45 μm cell strainers (BD Biosciences) and pelleted at 900 rpm for 3 min. For 2D culture of epidermis-derived cells, tissue culture petri dished were coated with a mixture of collagen I (30 μg/ml)+fibronectin (10 μg/ml; both from Millipore) in MEM for 1 h at 37° C. prior to plating of cells. Epidermis-derived cells were suspended in KGM or in FAD medium, and seeded on the coated plastic dishes. Medium was exchanged the next day after initial seeding and thereafter every second day. […] For 3D culture of HFSCs, 8×10^4 cells were resuspended in 40 μl ice-cold 1:1 KGM:Matrigel mixture that was dispensed as a droplet in 24-well cell culture dishes. The suspension was allowed to solidify for 15 min after which it was overlaid with 500 μl of stem cell media. The following media compositions were used: KGM basal medium, medium Y (KGM, 5 μM Y27632, 10 ng/ml human recombinant EGF), medium Y-E (KGM, 5 μM Y27632), medium YV (KGM, 5 μM Y27632, 10 ng/ml human recombinant EGF, 20 ng/ml mouse recombinant VEGF), medium YF (KGM, 5 μM Y27632, 10 ng/ml human recombinant EGF, 20 ng/ml human recombinant FGF-2), 3C (KGM, 5 μM Y27632, 10 ng/ml human recombinant EGF, 20 ng/ml mouse recombinant VEGF, 20 ng/ml human recombinant FGF-2), and 3C-E (KGM, 5 μM Y27632, 20 ng/ml mouse recombinant VEGF, 20 ng/ml human recombinant FGF-2).
For cell passaging and flow cytometry cultured hair follicle stem cells were extracted from Matrigel by mechanical homogenization and incubation in 0.5% Trypsin (Gibco), 0.5 mM EDTA, PBS or Accutase (Gibco) for 10 min at 37° C.
Single cell suspensions prepared from murine back skin (described above) or from cultured cells were rinsed once with KGM and stained with fluorescently labeled antibodies for 30 min on ice. After two washes with FACS Buffer (2% FCS, 2 mM EDTA, PBS) cells were measured in a BD FACS Canto II and data was analyzed using FlowJo software version 10. For purification of cell populations (cell sorting) a BD FACS Aria II or a BD FACS Aria Fusion were used. Cells were sorted in KGM medium at 4′C. Expression of cell surface markers was analyzed on live cells after exclusion of cell doublets and dead cells, respectively.

[1] = cyclopamine 10 μM for 5 days added to 3C cultures
[2] = 3C conditions (Y27632+EGF+FGF+VEGF), vs VEGF-164 or FGF-2 set to 1
[3] = YF conditions (Y27632+EGF+FGF), vs FGF-2 set to 1

COc1cc(-c2cc(-c3cccc(O)c3)cnc2N)cc(OC)c1OC [K02288, 3-[6-amino-5-(3,4,5-trimethoxyphenyl)pyridin-3-yl]phenol, reference compound]
percentage of CD34+α6+ HFSCs (3C conditions 14 days with K02288 10 nM): decrease

C[C@@H](N)[C@H]1CC[C@H](C(=O)Nc2ccncc2)CC1.Cl.Cl.O [Y27632, (R)-(+)-trans-4-(1-aminoethyl)-N-(4-Pyridyl)cyclohexanecarboxamide dihydrochloride monohydrate, reference compound]
requirement of ROCK inhibitor for HFSC growth and expansion (3C conditions, from the beginning of the culturing time): essential

CC1=C2C[C@H]3[C@@H](CC=C4C[C@@H](O)CC[C@@]43C)[C@@H]2CC[C@]12O[C@@H]1C[C@H](C)CN[C@H]1[C@H]2C [cyclopamine, (2′R,3S,3′R,3′aS,6'S,6aS,6bS,7′aR,11aS,11bR)-1,2,3,3′a,4,4′,5′,6,6′,6a,6b,7,7′,7′a,8,11,11a,11b-Octadecahydro-3′,6′,10,11b-tetramethylspiro[9H-benzo[a]fluorene-9,2′(3′H)-furo[3,2-b]pyridin]-3-ol, reference compound]
proportion of HFSCs in the cultured cell mixture (3C conditions 9 days, then cyclopamine 10 μM for 5 days, flow cytometry day 14): up to 93.6%
total cell numbers [1]: decrease
percentage of CD34+α6+ HFSCs [1]: elevated

B1: FGF-10: human recombinant FGF-10 (protein, UniProt O15520 38-208, looked up)
Fibroblast growth factor 10: QALGQDMVSPEATNSSSSSFSSPSSAGRHVRSYNHLQGDVRWRKLFSFTKYFLKIEKNGKVSGTKKENCPYSILEITSVEIGVVAVKAINSNYYLAMNKKGKLYGSKEFNNDCKLKERIEENGYNTYASFNWQHNGRQMYVALNGKGAPRRGQKTRRKNTSAHFLPMVVHS
normalized CD34+α6+ content of cultures [2]: perform equally well
normalized CD34+α6+ content of cultures [3]: perform equally well
growth/expansion of CD34+α6+ HFSCs when FGF-2 or VEGF-164 is replaced: Comparable

B2: FGF-7: human recombinant FGF-7 (protein, UniProt P21781 32-194, looked up)
Fibroblast growth factor 7: CNDMTPEQMATNVNCSSPERHTRSYDYMEGGDIRVRRLFCRTQWYLRIDKRGKVKGTQEMKNNYNIMEIRTVAVGIVAIKGVESEFYLAMNKEGKLYAKKECNEDCNFKELILENHYNTYASAKWTHNGGEMFVALNQKGIPVRGKKTKKEQKTAHFLPMAIT
normalized CD34+α6+ content of cultures [2]: perform equally well
normalized CD34+α6+ content of cultures [3]: perform equally well
growth/expansion of CD34+α6+ HFSCs when FGF-2 or VEGF-164 is replaced: Comparable

B3: FGF-18: human recombinant FGF-18 (protein, UniProt O76093 28-207, looked up)
Fibroblast growth factor 18: EENVDFRIHVENQTRARDDVSRKQLRLYQLYSRTSGKHIQVLGRRISARGEDGDKYAQLLVETDTFGSQVRIKGKETEFYLCMNRKGKLVGKPDGTSKECVFIEKVLENNYTALMSAKYSGWYVGFTKKGRPRKGPKTRENQQDVHFMKRYPKGQPELQKPFKYTTVTKRSRRIRPTHPA
growth/expansion of CD34+α6+ HFSCs when FGF-2 or VEGF-164 is replaced: Comparable
